Experimental findings from the DeepSol protein solubility set are described below.

This data set in a line: soluble on expression in E. coli; label from the status in PepcDB or PDB records.
With “MSFDAKSLQQVREQVAARLRLDAGRPWLMVHAGSGGSANNLSIEQYARLIIKLNQACPELQCILTAGPGEERIAEQLAAELLAHGGNGWIYRSDEGLPKFCQVMANAALFVAGSTGPLHIAAALDVPTIGFFPAHRSATPLRWRPLNSEGRHLAFSPPEDSDHPEDMSQLDPKTMAAAIARWAPPFWRTEHLEHHHHHH”, the “soluble on expression in E. coli” value is listed as “soluble”.

Take “MLNRIIEHMNAHHVEDMKGLLKKFGQVHHAENVAFKSVDSQGIVIGYNNNQTLRIEFNHEVKDPKDYKNATIELCQSVEKTHDLKGVEEEVKAFKEGFDSVCLATLHPNGHVVCSYAPLMSDGKQYYIYVSEVAEHFAGLKNNPHNVEVMFLEDESKAKSAILRKRLRYKTNTRFIERGAEFDKAFDSFIEKTGGAGGIKTIRAMQDFHLIALDFKEGRFVKGFGQAYDILGDKIAYVGDKGNPHNFAHKKLEHHHHHH”: the “soluble on expression in E. coli” value is “soluble”. For the sequence “MPAFDKPKVELHVHLDGSIKPETILYYGRRRGIALPANTAEGLLNVIGMDKPLTLPDFLAKFDYYMPAIAGCREAIKRIAYEFVEMKAKEGVVYVEVRYSPHLLANSKVEPIPWNQAEGDLTPDEVVALVGQGLQEGERDFGVKARSILCCMRHQPNWSPKVVELCKKYQQQTVVAIDLAGDETIPGSSLLPGHVQAYQEAVKSGIHRTVHAGEVGSAEVVKEAVDILKTERLGHGYHTLEDQALYNRLRQENMHFEICPWSSYLTGAWKPDTEHAVIRLKNDQANYSLNTDDPLIFKSTLDTDYQMTKRDMGFTEEEFKRLNINAAKSSFLPEDEKRELLDLLYKAYGMPPSASAGQNLAENLYFQ”, the “soluble on expression in E. coli” value is recorded as “soluble”. For the sequence “MDTVTKLSIIIPAWNEETGIARTLETLLALTAGRGDTEIIVSVSGNDRTKAIARTFPVVVCHSEKGRAVQMNAGAKLATGSILYFLHADTTPPPSFCDDIFSAIERGARAGCFRMTFDDPDWLMQLYGWFTQFPLPVCRGGDQSLFITKELFGQIGGFDERLQIMEDIEIIDRLQRHAGFHILDSTVTTSARKYHTNGTVRLQAIFGTIHLMYALGFSQKNIVAFYRDSIRLEHHHHHH”, the “soluble on expression in E. coli” value was “not soluble”. Regarding “GPGSMRWPAEPGCGSQGPATPERANKLRFLLVGKTDSGNHPSGWLVARTVRYSTADAEIGPCKGLISHDCKLLLLLCGYFERNPGPLRFVQQNVNGVSAVKLSSLLALDADVYLLPEVKKLREASRICKVPPYTVYCSPPNARGGRVAILVHQRSSIQTRSVTWKALPNDTGIKAVTVKL”, the “soluble on expression in E. coli” value is reported as “not soluble”. “MSLKGYYSNKISLEDLNKNIEDKKEQTIYFYQTSCVHCQKVSPIVVPLAKDLNVDMKVIDIENLNEPWDKYNIQGTPTIIHFKDGKEVSRISGEQSKDKFKEWFEQTKKEGHHHHHH”: the “soluble on expression in E. coli” value was “soluble”. As for “QPEDLAYVIFTSGSTGQPKGVAIEHRAARTTIDDINQRFEITDTDVVLGLSALSFDLSVWDIFGGLGAGATVVLPEEDRLRDPSYWLDLCDRHEITVWNSAPPLLEMLVDYAEIDPEAAAHALRNLRMVMLSGDWIPVTLPRRLKELAPNATVMSLGGATEASIWSICHRTSDADEHGPS”, the “soluble on expression in E. coli” value is given as “not soluble”. With “MSLKIFGTDGVRGKAGVKLTPMFVMRLGIAAGLYFKKHSQTNKILIGKDTRKSGYMVENALVSALTSIGYNVIQIGPMPTPAIAFLTEDMRCDAGIMISASHNPFEDNGIKFFNSYGYKLKEEEEKAIEEIFHDEELLHSSYKVGESVGSAKRIDDVIGRYIAHLKHSFPKHLNLQSLRIVLDTANGAAYKVAPVVFSELGADVLVINDEPNGCNINDQCGALHPNQLSQEVKKYRADLGFAFDGDADRLVVVDNLGNIVHGDKLLGVLGVYQKSKNALSSQAVVATNMSNLALKEYLKSQDLELKHCAIGDKFVSECMQLNKANFGGEQSGHIIFSDYAKTGDGLVCALQVSALVLESKQVSSVALNPFELYPQSLVNLNVQKKPPLESLKGYSALLKELDKLEIRHLIRYSGTENKLRILLEAKDEKLLESKMQELKEFFEGHLCEGHHHHHH”, the “soluble on expression in E. coli” value is “soluble”.

For “MVMVNFVKAGCSRWRCMLAKDTCIFTTFQMVPVSLCCCSYDRCNVGGNPVYSDNPKQIQNGGGNSGNWNSGGNNNGASGGSWGNGNANNNNNNNNGGSNNNGWGNNNDWSSNYNYGGSNAANEPKMTKQTVAGDDSWNKNKWTNKQVEDMFKKSIDDRGDEIQLEDDFKKIDKNYKTQSVPQESLRTLSARKEVEKIPFVAGKSSGVGAKTTASPTTGKSKEIQL”, the “soluble on expression in E. coli” value is given as “not soluble”.

On to “MIGYLRGLAVIVEDVEFARRLYKEGFYGRFLGYDKVKRDEVEKINAPLILGLYEALYLAEKGRLKVMGEDGREVAPEELAALGRERMRNFDEIYKIYKYFRDLGYVVKSGLKFGALFSVYEKGPGIDHAPMVVVFLEPDKGISATDITRGGRLSHSVRKTWTLATVLRQTGEVVLLGFGWARL”, for which the “soluble on expression in E. coli” value was “soluble”.

Regarding “MDLSELERDNTGRCRLSSPVPAVCLKEPCVLGVDEAGRGPVLGPMVYAICYCPLSRLADLEALKVADSKTLTENERERLFAKMEEDGDFVGWALDVLSPNLISTSMLGRVKYNLNSLSHDTAAGLIQYALDQNVNVTQVFVDTVGMPETYQARLQQHFPGIEVTVKAKADSLFPVVSAASIFAKVARDKAVKNWQFVENLQDLDSDYGSGYPNDPKTKAWLRKHVDPVFGFPQFVRFSWSTAQAILEKEAEDVIWEDSEAEEDPERPGKITSYFSQGPQTCRPQAPHRYFQERGLEAASSL”, the “soluble on expression in E. coli” value is listed as “soluble”. Consider “MGSDKIHHHHHHMATELKTFTDSQFIGKPVLADIEFIPHLEKINDFAATNGLKIFVTSSARPWGVPVGGAIVSPAKMSNHLIGHAIDMNIQIGGKLYTSNELGDFNSLPPPIKAFITTIRNHPVLRWGGDFGDPVHIDDGLNLHNPNLWKDKFPIIQSELTGLTQPGIRAVNSPRLLFLTTPLMKGDDIKVVQEKLIGKGFDLGITGADGFFGQATANAVIKFQDQEDLDPVDGIVGDKTKKALGL”, for which the “soluble on expression in E. coli” value is “not soluble”.

In the case of “MSLNLGDLTNFVEKPLAAVSNIVNTPNSAGRYRPFYLRNLLDAVQGRNLNDAVKGKVVLITGGSSGIGAAAAKKIAEAGGTVVLVARTLENLENVANDIRAIRGNGGTAHVYPCDLSDMDAIAVMADQVLGDLGGVDILINNAGRSIRRSLELSYDRIHDYQRTMQLNYLGAVQLILKFIPGMRERHFGHIVNVSSVGVQTRAPRFGAYIASKAALDSLCDALQAETVHDNVRFTTVHMALVRTPMISPTTIYDKFPTLTPDQAAGVITDAIVHRPRRASSPFGQFAAVADAVNPAVMDRVRNRAFNMFGDSSAAKGSESQTDTSELDKRSETFVRATRGIHWEGHHHHHH”, the “soluble on expression in E. coli” value is reported as “not soluble”. With “MITPVSSFSIDDLLRGHSNEIQRILKLDQTSPTPQSSSDEGSEKSSISVMSVPLTNELTPTITPALSDQLWLAAAAFPIEHSLLLAQRNGVFPGFWSTADQIRLSNATKAYRRLRLECSRRKARTVFSDQQLQGLERRFESQRYLSTPERIELANALNLSETQVKTWFQNRRMKHKKVVRKDDNSVDDDNGNDNESE”, the “soluble on expression in E. coli” value is listed as “not soluble”. As for “MENALSTLPLTAPSAELPRFGPPHIPIREDWLDRQREEILDPGLPIVDAHHHLWDRPGQRYMFEDFLRDTGSGHNIRATVYVQCRSMYRLDGPAAMRPVGEAEFVNGVAARSASGMYGPMRACAAIVGYADLTLGAAVEEVLHALVRAAPDRLRGVRNMTAAHASPAVAPGFGRVPEGLLSDARFRAGYARLAPLGLSYDVWAFHSQLAEVLDLARAYPDTALIVNHAGGPLGIGPYAGQRDAVMRDWDHHLRALADCPNVALKLGGLGMHISGLRFHEQDMPPSSEALAEAWRPWIHTAIERFGAQRCMFESNFPVDKGMAAYAAVWNAFKRLARGATPRERQALFAGTAARLYRLPASVLALEHHHHHH”, the “soluble on expression in E. coli” value is recorded as “not soluble”.

“MSLRETIKVGEKAPAFTVAALNGVDSISLSDYKGKIVIVHLWSPTCPHCRETNKVLPGIIGPYSKKANLAYIMIAIDMDTLTLRPVIEEDKLNFAIHGYDPFDGSAKTMMDYEAPGTPCINIVDEKGNLVGVNVTDDQLKKYLKKRFSRNSEGHHHHHH”: the “soluble on expression in E. coli” value is “not soluble”.
